In patent US20060234926:

Molecular target: beta2-microglobulin, native monomer (UniProt P61769)
Assay: SPR
Conditions: at 0.5 uM RNA; 317 nM at 0.1 uM RNA; TMGA buffer pH 3.6

beta2-microglobulin, native monomer, sequence (P61769 21-119): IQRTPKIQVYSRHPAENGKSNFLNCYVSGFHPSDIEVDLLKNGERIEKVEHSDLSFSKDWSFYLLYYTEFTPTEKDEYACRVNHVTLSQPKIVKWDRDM

“GGCNUGACANGGCAGGAUAGCCGGNCNANGCGANCNNUNGGNCCNCGANACCCGACNGUGG [N4]” showed a Kd of 104 nM.
